According to the supplement of paper PMC10567573:

B1: TOR1AIP2 (parent)
chain: HHVADAYTSSQKVSPIQIDGAGRT
B2: ZBTB22 (parent)
chain: RPFDCPVCNKKFKMKHHLTEHMKT

Variants of: B1
Experiment: protein stability index of a GFP-peptide fusion (GPS, HEK-293T) (PSI 1-6); higher = more stable
Conditions: c terminus: a fixed tail appended
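Note: lentivirally expressed fusions sorted by FACS into six bins by GFP to DsRed ratio, PSI derived from sequencing read proportions per bin multiplied by bin number.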

Protein stability index: each site, then its substitutions
A6: K 4.03 | F 2.69 | Q 4.32 | W 2.19
P15: D 3.81 | C 3.66 | A 3.66
Q11: W 2.21 | A 3.23 | G 3.66 | N 3.29 | R 2.95 | H 3 | C 3.06 | V 2.89 | P 3.74 | F 2.65 | S 3.44 | M 3.15 | Y 2.96 | I 3 | K 3.56 | T 3.6 | L 3.27 | D 4.26 | E 3.97
S14: N 4.01 | K 3.45 | R 3.26 | M 3.25 | C 3.22 | E 4.13 | F 3.34 | G 3.27 | W 2.77 | H 3.44 | I 2.94 | D 4.07 | V 3.46 | A 3.9 | Y 2.71 | L 3.42 | P 3.25 | T 3.22 | Q 3.35
S10: K 3.46 | C 2.96 | Y 2.94 | F 2.95 | G 3.81 | L 3.07 | E 3.98 | V 2.9 | H 3.17 | T 3.28 | A 3 | R 2.64 | W 2.37 | D 4.33 | Q 3.24 | N 3.21 | I 2.72 | M 2.93 | P 3.87
D5: C 2.46 | L 2.44 | F 2.24 | K 3.19 | Q 2.93 | G 3.97 | H 2.38 | A 2.63 | E 2.73 | I 2.5 | W 4.17 | R 3.6 | V 2.7 | N 3.33 | P 3.54 | M 2.48 | S 2.72 | T 3.68 | Y 2.35
V13: Q 3.85 | I 2.83 | E 3.96 | M 3.83 | C 2.92 | W 3.16 | R 3.59 | K 3.66 | F 3.21 | P 3.82 | A 3.27 | Y 3.43 | L 3.56 | G 3.7 | S 3.79 | T 3.8 | H 3.76 | D 4 | N 4.32

Variants of: B2
Experiment: as above
Conditions: c terminus: a fixed tail appended

Protein stability index of substitutions, site by site:
T24: E 3.21 | H 2.41 | S 2.53 | D 3.55 | R 2.84 | F 2.46 | P 2.45 | V 2.34 | Q 2.53 | L 3.19 | A 2.87 | I 1.95 | M 2.5 | Y 2.01 | G 2.44 | K 2.43 | C 3.07 | W 2.22 | N 2.54
H21: W 2.13 | V 2.44 | T 2.24 | S 2.52 | Y 2.2 | P 2.37 | Q 2.34 | R 2.25
M22: T 2.38 | S 2.29 | K 2.92 | A 2.48 | G 2.68 | N 2.62 | V 1.89 | P 2.48 | C 2.93 | F 2.3 | L 2.95 | Q 2.71 | R 2.48 | D 3.1 | Y 2.72 | I 2.15 | E 3 | W 2.43 | H 2.75
K23: I 2.38 | S 2.4 | E 2.39 | T 2.38 | V 2.37 | N 3.29 | W 1.98 | A 2.3 | D 2.61 | P 2.48 | R 2.26 | C 4.19 | L 2.38 | H 3.06 | F 1.95 | M 2.11 | Q 3.34 | Y 2.17 | G 2.99
